Values of other authors, collected in paper PMC7456198.
Read-outs that look alike come from different tables or passages of the source.

Key:
[1] = target: GLP-1 receptor (Homo sapiens) (UniProt P43220)
[2] = target: GLP-1 receptor (Homo sapiens) (UniProt P43220); remark: listed apart in the source

Sequence of UniProt P43220 (P43220 24-463): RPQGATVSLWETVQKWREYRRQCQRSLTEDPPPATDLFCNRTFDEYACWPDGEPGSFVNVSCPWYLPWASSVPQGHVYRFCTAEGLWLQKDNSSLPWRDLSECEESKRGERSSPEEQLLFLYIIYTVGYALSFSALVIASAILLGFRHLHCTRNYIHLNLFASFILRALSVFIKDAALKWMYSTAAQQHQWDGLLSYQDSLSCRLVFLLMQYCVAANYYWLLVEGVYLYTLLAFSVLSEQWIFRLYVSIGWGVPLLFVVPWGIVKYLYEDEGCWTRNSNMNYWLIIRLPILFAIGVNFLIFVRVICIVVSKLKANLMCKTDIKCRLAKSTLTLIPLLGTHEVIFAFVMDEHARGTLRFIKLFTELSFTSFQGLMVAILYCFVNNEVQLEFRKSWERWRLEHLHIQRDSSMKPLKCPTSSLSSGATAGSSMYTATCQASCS

Liraglutide (from UniProt P01275)
Kd [1]: 0.11 nM

Semaglutide (from UniProt P01275)
Kd [2]: 0.38 nM
